The data set concerns the molecule itself. The experiment in a line: SDS-PAGE (reductant-free sample buffer) and Western blot with anti-His; recombinant HsATG4B treated with 1 mM or 3 mM H2O2 for 5 min at 25 °C in TBSK buffer (50 mM Tris-HCl, 140 mM NaCl, 30 mM KCl, pH 8.0); high-molecular-weight signal on the blot. In general terms: A western blot detects proteins with antibodies after separation by electrophoresis.

B1: recombinant human ATG4B, His-tagged (His-HsATG4B) (enzyme, UniProt Q9Y4P1 1-393, looked up)
chain: MDAATLTYDTLRFAEFEDFPETSEPVWILGRKYSIFTEKDEILSDVASRLWFTYRKNFPAIGGTGPTSDTGWGCMLRCGQMIFAQALVCRHLGRDWRWTQRKRQPDSYFSVLNAFIDRKDSYYSIHQIAQMGVGEGKSIGQWYGPNTVAQVLKKLAVFDTWSSLAVHIAMDNTVVMEEIRRLCRTSVPCAGATAFPADSDRHCNGFPAGAEVTNRPSPWRPLVLLIPLRLGLTDINEAYVETLKHCFMMPQSLGVIGGKPNSAHYFIGYVGEELIYLDPHTTQPAVEPTDGCFIPDESFHCQHPPCRMSIAELDPSIAVGFFCKTEDDFNDWCQQVKKLSLLGGALPMFELVELQPSHLACPDVLNLSLDSSDVERLERFFDSEDEDFEILSL
notes: human cysteine protease ATG4B, recombinant, bought; printed size with His tag 47 kDa; No catalogue number is printed; source: bought: Abcam
As for B1, the binding result is “binds”.

(Values after publication PMC8698322, “Autophagy Is Involved in the Viability of Overexpressing Thioredoxin o1 Tobacco BY-2 Cells under Oxidative Conditions” (Antioxidants, 2021).)
